According to US20250042957A1 (Molecular Partners, published 2025):

T1: scCD3εγ
T1 chain 1: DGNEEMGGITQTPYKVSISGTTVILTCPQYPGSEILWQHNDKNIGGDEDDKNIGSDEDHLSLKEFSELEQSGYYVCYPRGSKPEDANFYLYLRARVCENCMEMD
T1 chain 2: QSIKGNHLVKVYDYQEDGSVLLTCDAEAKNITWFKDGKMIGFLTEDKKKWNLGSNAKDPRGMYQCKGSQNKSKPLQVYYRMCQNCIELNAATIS

T2: CD3-specific binding domain (SEQ ID NO: 3) (biotinylated when used as immobilized SPR ligand (site not stated))
T2 construct: also called α-CD3 DARPin
T2 chain: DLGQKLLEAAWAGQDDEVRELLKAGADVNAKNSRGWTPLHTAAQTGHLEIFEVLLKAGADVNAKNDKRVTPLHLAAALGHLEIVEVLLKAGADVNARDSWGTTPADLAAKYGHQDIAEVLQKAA


Experiments:
VEGF165 [1] = target: T3, VEGF165 (UniProt P15692-4 27-191, biotinylated in the ELISA of Example 4 (site not stated)); assay: ELISA: plate-bound biotinylated VEGF165, His-tagged construct titrated, no soluble VEGF, anti-His-HRP detection
T3 construct: also called biotinylated VEGF165; soluble VEGF

scCD3εγ [2] = target: T1, scCD3εγ; assay: ELISA on scCD3εγ, DARPin titrated
scCD3εγ [3] = target: T1, scCD3εγ; assay: SPR, bio-scCD3εγ coated on NAD chip, DARPin 333.33-4.11 nM
[4] = target: T2, CD3-specific binding domain (SEQ ID NO: …); assay: SPR; KD on CD3-specific binding domain (Ligand1) divided by KD on VEGF165 (Ligand2)
VEGF165 [5] = target: T3, VEGF165; assay: SPR (ProteOn), VEGF165 immobilized, multi-trace 50-0.195 nM, 25 C
[6] = target: T2, CD3-specific binding domain (SEQ ID NO: …); assay: SPR (ProteOn), biotinylated CD3-specific binding domain immobilized, multi-trace 50-0.195 nM, 25 C
scCD3εγ [7] = target: T1, scCD3εγ; assay: ELISA: plate-bound biotinylated scCD3εγ, His-tagged construct titrated without and with 100 nM soluble VEGF
Method: (§1) The difference in binding of Switchdrug DARPins to scCD3εγ in presence and absence of VEGF was assessed. […] Said Switchdrug DARPins were mixed with a constant concentration of VEGF (100 nM) and tested for binding to scCD3εγ. […] The difference in EC50 of a construct in presence and absence of VEGF can be referred to as the “activation window”.
(§2) Switchdrug DARPins that were mixed with VEGF were titrated and pre-incubated for 1 day with VEGF in order to establish the thermodynamic equilibrium. These samples were loaded on the ELISA plate, incubated and washed, before the bound Switchdrug DARPins were detected as described above.

scCD3εγ [8] = target: T1, scCD3εγ; assay: ELISA: plate-bound biotinylated scCD3εγ, His-tagged construct titrated in presence of 100 nM soluble VEGF
Method: as §1, §2

scCD3εγ [9] = target: T1, scCD3εγ; assay: ELISA: plate-bound biotinylated scCD3εγ, His-tagged construct titrated, no VEGF
Method: as §1, §2

T3 sequence (P15692 other isoform, or with tags, fused parts or gaps limits assumed): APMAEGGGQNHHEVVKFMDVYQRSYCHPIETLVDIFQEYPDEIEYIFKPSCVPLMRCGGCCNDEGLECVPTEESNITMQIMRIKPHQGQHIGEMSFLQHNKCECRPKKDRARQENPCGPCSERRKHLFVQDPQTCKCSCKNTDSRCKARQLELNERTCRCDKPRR

Binder | EC50 (read off the curve) (VEGF165 [1]) [nM] | EC50 (read off the curve) (scCD3εγ [2]) [nM] | Kd (scCD3εγ [3]) [nM] | KD ratio (Ligand1/Ligand2) [4] | Kd (VEGF165 [5]) [nM] | kon (VEGF165 [5]) [M⁻¹ s⁻¹] | Kd [6] [nM] | koff [6] [s⁻¹] | kon [6] [M⁻¹ s⁻¹] | koff (VEGF165 [5]) [s⁻¹] | shift in EC50 upon addition of 100 nM VEGF (scCD3εγ [7]) [fold] | EC50 (read off the curve) (scCD3εγ [8]) [nM] | EC50 (read off the curve) (scCD3εγ [9]) [nM]
Switchdrug DARPin 15-A (designed binder, also called 2-in-1 DARPin15 in Format A) MRGSHHHHHHGSDLGKKLLQAARAGQLDEVRELLKAGADVNAKDQYGRTPLHLAAIKGHLEIVEVLLKAGADVNAKDSLGYTPLHLAAVEGPLEIVEVLLKAGADVNAKDAYGQTPLHIAAAWGHLEIVEVLLKAVADVNAQDKSGKTPADLAARAGHQDIAEVLQKAAGSPTPTPTTPTPTPTTPTPTPTGSDLGQKLLEAAWAGQDDEVRELLKAGADVNAKNSRGWTPLHTAAQTGHLEIFEVLLKAGADVNAKNDKRVTPLHLAAALGHLEIVEVLLKAGADVNARDSWGTTPADLAAKYGHQDIAEVLQKAAGSPTPTPTTPTPTPTTPTPTPTGSDLDKKLLEAARAGQDDEVRILLKAGADVNAKDSTGWTPLHLAAPWGHPEIVEVLLKAGADVNAKDFQGWTPLHLAAAAGHLEIVEVLLKAGADVNAKDWLGWTPLHLAASHGHLEIVEVLLKAGADVNAQDKSGKTPADLAARAGHQDIAEVLQKAA | ~20 |  |  |  |  |  |  |  |  |  |  |  | 
2-in-1 DARPin 23 (SEQ ID NO: 92) (designed binder, Family 2, from Parent nos 3 and 4; tag not specified) DLGKKLLQAARAGQLDEVRELLKAGADVNAKDSQGRTPLHLAAFAGHLEIVEVLLKAGADVNAKDHAGWTPLHLAAYAGHLEIVEVLVKAGADVNAKDTEGKTPLHIAAWFGHLEIVEVLLKAGADVNAKDKSGQTPLHLAAWAGHLEIVEVLLKAGADVNAKNSRGWTPLHTAAQTGHLEIFEVLLKAGADVNAKNDKRVTPLHLAAALGHLEIVEVLLKAGADVNARDSWGTTPADLAAKYGHQDIAEVLQKAA |  | ~30 | 3.81 |  |  |  |  |  |  |  |  |  | 
2-in-1 DARPin 20 (SEQ ID NO: 13) (designed binder, N4C mono-domain; purified by its His-tag) DLDKKLLEAARAGQDDEVRILLKAGADVNAKDSTGWTPLHLAAPWGHPEIVEVLLKAGADVNAKDFQGWTPLHLAAAAGHLEIVEVLLKAGADVNAKDVYGWTPLHLAAAAGHLEIVEVLLKAGADVNAKDWLGWTPLHLAASHGHLEIVEVLLKAGADVNAQDKSGKTPADLAARAGHQDIAEVLQKAA |  |  |  | 2.09 | 0.69 | 1.29e+06 | 1.44 | 0.0005 | 350000 |  |  |  | 
2-in-1 DARPin 19 (SEQ ID NO: 12) (designed binder, N4C mono-domain; purified by its His-tag) DLDKKLLEAARAGQDDEVRILLKAGADVNAKDSTGWTPLHLAAPWGHPEIVEVLLKAGADVNAKDFKGWTPLHLAAAAGHLEIVEVLLKAGADVNAKDVYGWTPLHLAAAAGHLEIVEVLLKAGADVNAKDWLGWTPLHLAASHGHLEIVEVLLKAGADVNAQDKSGKTPADLAARAGHQDIAEVLQKAA |  |  |  | 0.00647 | 68.5 | 1.38e+06 | 0.44 | 0.0002 | 450000 | 0.0949 |  |  | 
2-in-1 DARPin 18 (SEQ ID NO: 11) (designed binder, N4C mono-domain; purified by its His-tag) DLDKKLLEAARAGQDDEVRILLKAGADVNAKDSTGWTPLHLAAPWGHPEIVEVLLKAGADVNAKDFQGWTPLHLAAAAGHLEIVEVLLKAGADVNAKDVYGWTPLHIAAASGHLEIVEVLLKAGADVNAKDWLGWTPLHLAASHGHLEIVEVLLKAGADVNAQDKSGKTPADLAARAGHQDIAEVLQKAA |  |  |  | 17 | 0.1 | 1.16e+06 | 1.7 | 0.00087 | 514000 | 0.00012 |  |  | 
2-in-1 DARPin 12 (SEQ ID NO: 7) (designed binder, N3C mono-domain; purified by its His-tag) DLDKKLLEAARAGQDDEVRILLKAGADVNAKDSTGWTPLHLAAPWGHPEIVEVLLKAGADVNAKDVYGWTPLHLAAAAGHLEIVEVLLKAGADVNAKDWLGWTPLHLAASHGHLEIVEVLLKAGADVNAQDKSGKTPADLAARAGHQDIAEVLQKAA |  |  |  | 0.195 | 6.66 | 1.59e+06 | 1.3 | 0.00081 | 624000 | 0.0106 |  |  | 
2-in-1 DARPin 13 (SEQ ID NO: 8) (designed binder, N3C mono-domain; purified by its His-tag) DLDKKLLEAARAGQDDEVRILLKAGADVNAKDSTGWTPLHLAAPWGHPEIVEVLLKAGADVNAKDFYGWTPLHLAAAAGHLEIVEVLLKAGADVNAKDWLGWTPLHLAASHGHLEIVEVLLKAGADVNAQDKSGKTPADLAARAGHQDIAEVLQKAA |  |  |  | 14.2 | 0.81 | 3.29e+06 | 11.5 | 0.008 | 693000 | 0.00268 |  |  | 
2-in-1 DARPin 11 (SEQ ID NO: 6) (designed binder, N3C mono-domain; purified by its His-tag) DLDKKLLEAARAGQDDEVRILLKAGADVNAKDSTGWTPLHLAAPWGHPEIVEVLLKAGADVNAKDVYGWTPLHIAAASGHLEIVEVLLKAGADVNAKDWLGWTPLHLAASHGHLEIVEVLLKAGADVNAQDKSGKTPADLAARAGHQDIAEVLQKAA |  |  |  | 0.0865 | 11.1 | 1.38e+06 | 0.96 | 0.00067 | 691000 | 0.0153 |  |  | 
2-in-1 DARPin 15 (SEQ ID NO: 9) (designed binder, N3C mono-domain; purified by its His-tag) DLDKKLLEAARAGQDDEVRILLKAGADVNAKDSTGWTPLHLAAPWGHPEIVEVLLKAGADVNAKDFQGWTPLHLAAAAGHLEIVEVLLKAGADVNAKDWLGWTPLHLAASHGHLEIVEVLLKAGADVNAQDKSGKTPADLAARAGHQDIAEVLQKAA |  |  |  | 59100 | 0.02 | 4.11e+06 | 1360 | 0.205 | 151000 | 0.0001 |  |  | 
2-in-1 DARPin 17 (SEQ ID NO: 10) (designed binder, N3C mono-domain; purified by its His-tag) DLGKKLLQAARAGQLDEVRELLKAGADVNAKDSTGWTPLHLAAPWGHPEIVEVLLKAGADVNAKDFQGWTPLHLAAAAGHLEIVEVLLKAGADVNAKDWLGWTPLHLAASHGHLEIVEVLLKAGADVNAQDKSGKTPADLAARAGHQDIAEVLQKAA |  |  |  | 2180 | 0.18 | 4.63e+06 | 392 |  |  | 0.00085 |  |  | 
2-in-1 DARPin 24 (SEQ ID NO: 93) (designed binder, Family 2, from Parent nos 3 and 4; tag not specified) DLGKKLLQAARAGQLDEVRELLKAGADVNAKDSQGRTPLHLAAFAGHLEIVEVLLKAGADVNAKDHAGWTPLHLAAYAGHLEIVEVLVKAGADVNAKDTEGKTPLHIAAWFGHLEIVEVLLKAGADVNAKDKSGKTPLHLAARAGHLEIVEVLLKAGADVNAKDNSGQTPLHEAAWAGHLEIVEVLLKAGADVNAKNSRGWTPLHTAAQTGHLEIFEVLLKAGADVNAKNDKRVTPLHLAAALGHLEIVEVLLKAGADVNARDSWGTTPADLAAKYGHQDIAEVLQKAA |  | ~10 | 4.67 |  |  |  |  |  |  |  |  |  | 
2-in-1 DARPin 25 (SEQ ID NO: 94) (designed binder, Family 2, from Parent nos 3 and 4; tag not specified) DLGKKLLQAARAGQLDEVRELLKAGADVNAKDSQGRTPLHLAAFAGHLEIVEVLLKAGADVNAKDHAGWTPLHLAAYAGHLEIVEVLVKAGADVNAKDTEGKTPLHIAAWFGHLEIVEVLLKAGADVNAKDKSGKTPLHLAARAGHLEIVEVLLKAGADVNAKDNSGQTPLHLAAWAGHLEIVEVLLKAGADVNAKNSRGWTPLHTAAQTGHLEIFEVLLKAGADVNAKNDKRVTPLHLAAALGHLEIVEVLLKAGADVNARDSWGTTPADLAAKYGHQDIAEVLQKAA |  | ~10 | 4.05 |  |  |  |  |  |  |  |  |  | 
Switchdrug DARPin 15-1 (designed binder, also called 2-in-1 DARPin15 in Format 1) MRGSHHHHHHGSDLGQKLLEAAWAGQDDEVRELLKAGADVNAKNSRGWTPLHTAAQTGHLEIFEVLLKAGADVNAKNDKRVTPLHLAAALGHLEIVEVLLKAGADVNARDSWGTTPADLAAKYGHQDIAEVLQKAAGSPTPTPTTPTPTPTTPTPTPTGSDLDKKLLEAARAGQDDEVRILLKAGADVNAKDSTGWTPLHLAAPWGHPEIVEVLLKAGADVNAKDFQGWTPLHLAAAAGHLEIVEVLLKAGADVNAKDWLGWTPLHLAASHGHLEIVEVLLKAGADVNAQDKSGKTPADLAARAGHQDIAEVLQKAA |  |  |  |  |  |  |  |  |  |  | ~18 | ~3 | ~50
Switchdrug DARPin 15-B (designed binder, also called 2-in-1 DARPin15 in Format B) MRGSHHHHHHGSDLDKKLLEAARAGQDDEVRILLKAGADVNAKDSTGWTPLHLAAPWGHPEIVEVLLKAGADVNAKDFQGWTPLHLAAAAGHLEIVEVLLKAGADVNAKDWLGWTPLHLAASHGHLEIVEVLLKAGADVNAQDKSGKTPADLAARAGHQDIAEVLQKAAGSPTPTPTTPTPTPTTPTPTPTGSDLGKKLLQAARAGQLDEVRELLKAGADVNAKDQYGRTPLHLAAIKGHLEIVEVLLKAGADVNAKDSLGYTPLHLAAVEGPLEIVEVLLKAGADVNAKDAYGQTPLHIAAAWGHLEIVEVLLKAVADVNAQDKSGKTPADLAARAGHQDIAEVLQKAAGSPTPTPTTPTPTPTTPTPTPTGSDLGQKLLEAAWAGQDDEVRELLKAGADVNAKNSRGWTPLHTAAQTGHLEIFEVLLKAGADVNAKNDKRVTPLHLAAALGHLEIVEVLLKAGADVNARDSWGTTPADLAAKYGHQDIAEVLQKAA | ~10 |  |  |  |  |  |  |  |  |  |  |  | 
